# Laboratory results as given in US20260258465, “NUCLEIC ACID-GUIDED DNA SYNTHESIS” (The Trustees of Columbia University in the City of New York, published 2026).
# T1: KpnDRT2 reverse transcriptase (Klebsiella pneumoniae)
# T1 chain: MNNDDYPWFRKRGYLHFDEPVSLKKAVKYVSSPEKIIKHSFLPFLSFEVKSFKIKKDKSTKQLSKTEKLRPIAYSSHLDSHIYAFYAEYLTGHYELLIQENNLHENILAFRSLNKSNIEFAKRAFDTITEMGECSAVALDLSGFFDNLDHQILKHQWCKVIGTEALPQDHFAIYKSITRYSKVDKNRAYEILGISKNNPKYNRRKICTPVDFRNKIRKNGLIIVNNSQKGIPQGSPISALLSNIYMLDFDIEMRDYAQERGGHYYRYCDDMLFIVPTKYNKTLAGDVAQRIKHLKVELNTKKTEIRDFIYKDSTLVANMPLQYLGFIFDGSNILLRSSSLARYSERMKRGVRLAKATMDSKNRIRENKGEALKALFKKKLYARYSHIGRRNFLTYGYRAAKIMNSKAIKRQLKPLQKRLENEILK
# Target: T1, KpnDRT2 reverse transcriptase
# Assay: EMSA; 20 mM HEPES pH 7.5, 5 mM MgCl2, 200 mM NaCl, 37 C
# Conditions: tags: N-terminal His6-GST removed by TEV; C-terminal StrepII; stem-loops SL1-SL8
# Description: To test binding of the ncRNA by the RT, the purified ncRNA was mixed with increasing amounts of the RT in reaction buffer (20 mM HEPES pH 7.5, 5 mM MgCl₂, 5% glycerol, 200 mM NaCl, and 1 mM DTT). Samples were incubated at 37° C. for 15 minutes and analyzed by electrophoretic mobility shift assay (EMSA). The shift in mobility at higher concentrations of RT enzyme indicates binding of the ncRNA by the RT (FIG. 14A).
binder,measurement,value
KpnDRT2 ncRNA WT (ssRNA) RNA: GCCCUAAACAAAGGUUUAGGGGUAUUGUACAGGUUGUCAAGCCUCCCACAGGUCUUGGUGAAACCAAUCACUGUGACGACGGUAAGCAACACUUGGAUGAUAUUCAUAAUUGACUCCACGCUACUGAUUACAUUAUACAGCAUAUCUAACAUUUGCGGCGAGGUUCACAAUUUGUAUUUAGGUACUGAUUGUGGAUGAGAAGGUUGGAGAAAGACCACUUGGUUAAGCCGGAGGAUGUGUCCUAGAAUUGUCGCUAUUCUGUCAUCCUCCGGUUUUGCUAA,binding result,binds
